Data: paper PMC6050537 (2018)
Non-standard residues stand in square brackets, D forms with d. 1Nal = N[C@@H](Cc1cccc2ccccc12)C(=O)O

Target: T1, Full length IDOL (1–445) (UniProt Q8WY64 1-445, NT-647-NHS dye (only the labelled copy in the MST assays))
T1 chain: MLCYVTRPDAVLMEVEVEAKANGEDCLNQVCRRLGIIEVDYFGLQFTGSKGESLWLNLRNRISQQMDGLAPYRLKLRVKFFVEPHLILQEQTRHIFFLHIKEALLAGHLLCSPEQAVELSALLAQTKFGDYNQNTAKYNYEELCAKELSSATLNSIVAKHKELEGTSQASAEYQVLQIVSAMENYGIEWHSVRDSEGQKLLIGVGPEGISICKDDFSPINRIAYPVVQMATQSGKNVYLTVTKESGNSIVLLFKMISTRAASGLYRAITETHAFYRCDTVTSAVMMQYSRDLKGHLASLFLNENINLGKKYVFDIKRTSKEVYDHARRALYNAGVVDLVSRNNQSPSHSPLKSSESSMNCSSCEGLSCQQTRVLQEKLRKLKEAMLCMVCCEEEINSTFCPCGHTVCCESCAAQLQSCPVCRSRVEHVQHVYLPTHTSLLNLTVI
Assay: MST

B1: RINGPep2 (cyclo-CF-Cha-LYT) (peptide)
chain: CFXLYT
HELM: PEPTIDE1{C.F.[Cha].L.Y.T}$PEPTIDE1,PEPTIDE1,1:R1-6:R2$$$V2.0
SMILES: CC(C)C[C@@H]1NC(=O)[C@H](CC2CCCCC2)NC(=O)[C@H](Cc2ccccc2)NC(=O)[C@H](CS)NC(=O)[C@H]([C@@H](C)O)NC(=O)[C@H](Cc2ccc(O)cc2)NC1=O
**Q.** For B1, which Kd is on record?
**A.** The Kd was 6.6 µM.

**Q.** cyclo(CF[1Nal]LYT) [RINGPep1 analogue containing 3-(1-naphthyl)-L-alanine] was tested. Which Kd did it give?
**A.** Its Kd is 6.3 µM.
